Patent US20210032312A1 (Janssen / Centocor, published 2021)

Experiments:
[1] = target: T1, cynomolgus monkey CD8A on primary cynomolgus monkey CD8+ T cells (cynomolgus monkey, UniProt P01732 23-235 (human entry)); experiment: flow cytometry, cyno CD8+ T cells, 2 uM FN3
T1 construct: also called Cyno CD8alpha
Method: (§1) Binding of the 190 ELISA hits to human and cynomologous monkey primary CD8 T cells was assessed by flow cytometry. The FN3 domain molecules were diluted to 2 μM and 0.2 μM in PBS and incubated with human or cynomologous monkey CD8+ T cells in 96-well format. After 1 hour at 4 C, the cells were washed once with PBS and then resuspended with an anti-FN3 domain antibody (PAB25) solution. Following this incubation, the cells were washed twice with PBS and a PE conjugated secondary antibody and a viability dye were added. Finally, cells were washed and resuspended in PBS for flow cytometric analysis using a BD Canto Instrument. Cells were gating on live cells and median fluorescence intensity of the bound Centyrins (PE channel) was calculated using Cytobank software.

[2] = target: T1, cynomolgus monkey CD8A on primary …; experiment: flow cytometry, cyno CD8+ T cells, 0.2 uM FN3
Method: as §1

In house human CD8A-Fc = target: T2, In house human CD8A-Fc (human, UniProt P01732 22-182, limits assumed); experiment: SPR (ProteOn), captured hCD8A-Fc
T2 construct: Captured on goat anti-human Fc on a ProteOn GLC chip; also called hCD8A-Fc; recombinant human CD8 alpha; not shown: linker with flag (and polyhistidine) tag and Fc of human IgG1
Method: Purified anti-CD8A FN3 domains were subjected to off-rate analysis using a Proteon surface plasmon resonance instrument in order to pick clones with the slowest off-rates for further characterization.
The immobilized GAH-Fc IgG densities averaged about 6000 Response Units (Ru) with less than 1% variation among different channels. In house human CD8A-Fc was captured in vertical orientation at 3 different ligand densities, 10, 5, 2.5 μg/ml for 5 minutes at 30 ul/minute flowrate. All FN3 domains were normalized to a 3 μM concentration, and tested for binding in horizontal orientation. All 6 analyte channels were used for FN3 domains to maximize the screening throughput. The dissociation phase was monitored for 15 minutes at a flow rate of 100 μl/min using PBST as running buffer. […] Data analyses were performed using Bio-Rad ProteOn Manager software (version 3.1.0.6). Raw data were double referenced by subtraction of the interspot (empty chip surface, no protein immobilized or captured) signals to correct the non-specific binding of the FN3 domain to the pre-coated GAH-Fc IgG surface, followed by a double correction using empty channel L6 where no hCD8A-Fc was captured. The processed binding data were locally fit to a 1:1 simple Langmuir binding model to extract the koff for each FN3 domain binding to captured hCD8A-Fc.

[3] = target: T3, human CD8 alpha (CD8A) on primary human CD8+ T cells (human, UniProt P01732 22-235); experiment: flow cytometry, human CD8+ T cells, 0.2 uM FN3
T3 construct: whole, on cells; also called hCD8A
Method: as §1

[4] = target: T3, human CD8 alpha (CD8A) on primary human …; experiment: flow cytometry, human CD8+ T cells, 2 uM FN3
Method: as §1

T2 sequence (P01732 22-182 limits assumed): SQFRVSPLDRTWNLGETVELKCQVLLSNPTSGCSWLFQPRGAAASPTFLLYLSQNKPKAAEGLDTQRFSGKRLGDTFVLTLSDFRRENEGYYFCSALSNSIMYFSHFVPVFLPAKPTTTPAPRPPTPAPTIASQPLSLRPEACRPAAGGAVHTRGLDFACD
T3 sequence (P01732 22-235): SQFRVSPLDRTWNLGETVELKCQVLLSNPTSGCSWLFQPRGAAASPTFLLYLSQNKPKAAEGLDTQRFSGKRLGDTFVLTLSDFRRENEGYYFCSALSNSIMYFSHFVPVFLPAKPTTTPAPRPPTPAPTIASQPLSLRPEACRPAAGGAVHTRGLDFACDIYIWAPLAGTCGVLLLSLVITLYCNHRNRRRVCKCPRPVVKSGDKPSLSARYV
T1 sequence (P01732 other isoform, or with tags, fused parts or gaps limits assumed): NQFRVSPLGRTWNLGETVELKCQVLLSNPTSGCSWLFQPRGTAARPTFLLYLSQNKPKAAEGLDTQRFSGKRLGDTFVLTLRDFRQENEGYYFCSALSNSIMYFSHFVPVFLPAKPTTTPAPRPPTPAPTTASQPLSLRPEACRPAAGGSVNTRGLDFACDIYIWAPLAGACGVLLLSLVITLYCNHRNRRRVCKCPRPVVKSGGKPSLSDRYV

Cyno T-cell Binding 2 uM (MFI) [1] [MFI]	Cyno T-cell Binding 0.2 uM (MFI) [2] [MFI]	koff (In house human CD8A-Fc) [s⁻¹]	Human T-cell Binding 0.2 uM (MFI) [3] [MFI]	Human T-cell Binding 2 uM (MFI) [4] [MFI]	Binder
85700	13700	0.000637	3070	24400	P282CR9P1358_F5 (designed binder, FN3 domain) LPAPKNLVVSRVTEDSARLSWTAPDAAFDSFWISYPEWPPDGEAIVLTVPGSERSYDLTGLKPGTEYFVIIWGVKGGETSAPLSAIFTT
66500	3640	0.000978	944	15100	P282DR9P1359_C12 (designed binder, FN3 domain) LPAPKNLVVSRVTEDSARLSWTAPDAAFDSFYISYPEWPVPGEAIVLTVPGSERSYDLTGLKPGTEYWVVIYGVKGGALSVPLSAIFTT
88000	15500	8.12e-05	5950	32200	P282DR9P1359_A12 (designed binder, FN3 domain) LPAPKNLVVSRVTEDSARLSWTAPEAAFDSFQIAYPEWPPPREAIVLTVPGSERSYDLTGLKPGTEYFVVIQGVKGGEISWPLSAIFTT
37100	1750	0.00193	542	4540	P282DR9P1359_D12 (designed binder, FN3 domain) LPAPKNLVVSRVTEDSARLSWTAPDAAFDSFRIAYPETATWGEAIVLTVPGSERSYDLTGLKPGTEYFVIIYGVKGGFESAPLSAIFTT
70300	7770	0.000638	2110	21100	P282DR9P1359_A8 (designed binder, FN3 domain) LPAPKNLVVSRVTEDSARLSWTAPDAAFDSFRIAYPEWPVQGEAIVLTVPGSERSYDLTGLKPGTEYFVIIYGVKGGELSPPLSAIFTT
61700	5060	0.00171	1260	20500	P282DR9P1359_E6 (designed binder, FN3 domain) LPAPKNLVVSRVTEDSARLSWTAPDAAFDSFWIAYPEWPVQGEAIVLTVPGSERSYDLTGLKPGTEYFVVIQGVKGGTPSWPLSAIFTT
52400	1620	0.00263	349	4310	P282DR9P1359_E3 (designed binder, FN3 domain) LPAPKNLVVSRVTEDSARLSWTAPDAAFDSFAIAYPELPLGGEAIVLTVPGSERSYDLTGLKPGTEYFVIIYGVKGGVESFPLSAIFTT
81200	13600	0.00101	1950	24100	P282DR9P1359_E5 (designed binder, FN3 domain) LPAPKNLVVSRVTEDSARLSWTAPDAAFDSFAISYPEWPVPGEAIVLTVPGSERSYDLTGLKPGTEYFVIIYGVKGGLYSAPLSAIFTT
19900	457	0.00216	1290	18200	P282DR9P1359_C11 (designed binder, FN3 domain) LPAPKNLVVSRVTEDSARLSWTAPDAAFDSFKIAYPEFPPPGEAIVLTVPGSERSYDLTGLKPGTEYYVIIIGVKGGTDSWPLSAIFTT
98500	15100	0.000991	2880	27800	P282DR9P1359_C10 (designed binder, FN3 domain) LPAPKNLVVSRVTEDSARLSWTAPDAAFDSFAIVYPEWPTDGEAIVLTVPGSERSYDLTGLKPGTEYAVFIWGVKGGNQSWPLSAIFTT
